Measurements taken from patent US20160319012A1 (Genentech, published 2016).

Target: T1, hamster phospholipase B-like 2 (PLBL2) (hamster, UniProt G3I6T1 38-585, Used as two conjugates: one with biotin (Biotin-PLBL2) and one with digoxigenin (DIG-PLBL2). Conjugation sites are not stated. Natural mannose-6-phosphate glycans are not carried by the letters.)
T1 construct: Purified hamster PLBL2; also called PLB2; PLBD2
T1 sequence: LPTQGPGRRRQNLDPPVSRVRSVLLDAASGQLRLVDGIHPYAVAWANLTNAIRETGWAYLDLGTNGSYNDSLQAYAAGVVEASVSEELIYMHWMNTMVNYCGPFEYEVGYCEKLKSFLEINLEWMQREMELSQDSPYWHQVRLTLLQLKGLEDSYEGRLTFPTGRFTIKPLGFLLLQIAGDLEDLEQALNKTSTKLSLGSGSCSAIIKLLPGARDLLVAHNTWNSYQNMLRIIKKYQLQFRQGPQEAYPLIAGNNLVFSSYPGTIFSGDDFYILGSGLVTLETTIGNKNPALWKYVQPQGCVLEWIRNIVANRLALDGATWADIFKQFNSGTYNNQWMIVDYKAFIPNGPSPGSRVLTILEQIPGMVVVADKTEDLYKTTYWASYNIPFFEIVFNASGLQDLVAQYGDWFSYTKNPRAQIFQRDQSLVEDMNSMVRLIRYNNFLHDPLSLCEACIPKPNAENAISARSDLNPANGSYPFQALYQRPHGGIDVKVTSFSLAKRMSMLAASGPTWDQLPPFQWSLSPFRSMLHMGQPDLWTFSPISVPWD
Test: bridging ELISA with Biotin-PLBL2 and DIG-PLBL2, drug tolerance experiment in serum
Protocol: The antibody bridging ELISA assay that was developed and validated to detect antibodies to hamster PLBL2 in human serum used two conjugated reagents to capture all isotypes of antibodies directed against hamster PLBL2: purified hamster PLBL2 conjugated to biotin (Biotin-PLBL2) and purified hamster PLBL2 conjugated to digoxigenin (DIG-PLBL2). Production and purification of hamster PLBL2 was carried out using standard methods known to one skilled in the art is also described in U.S. Provisional Application Nos. 61/877,503 and 61/991,228 and conjugation to biotin or DIG were carried out using standard methods known to one skilled in the art. In this semi-homogenous antibody bridging ELISA assay, 75 μL/well of conjugated solution in assay diluent (PBS/0.5% BSA/0.05% Polysorbate 20/0.05% ProClin 300, pH 7.4±0.1) containing 3 μg/mL of each Biotin-PLBL2 and DIG-PLBL2 were co-incubated overnight (16-24 hours) at ambient temperature with 75 μL/well of 1:20 diluted serum samples and controls in assay diluent in polypropylene micronic tubes (National Scientific Supply Co.; Claremont, C A). […] The plates were read at 450 nm for detection absorbance and 630 nm for reference absorbance.

B1: lebrikizumab (antibody, human IgG4 S228P, kappa, V domains shown)
VH: VTLRESGPALVKPTQTLTLTCTVSGFSLSAYSVNWIRQPPGKALEWLAMIWGDGKIVYNSALKSRLTISKDTSKNQVVLTMTNMDPVDTATYYCAGDGYYPYAMDNWGQGSLVTVSS
VL: DIVMTQSPDSLSVSLGERATINCRASKSVDSYGNSFMHWYQQKPGQPPKLLIYLASNLESGVPDRFSGSGSGTDFTLTISSLQAEDVAVYYCQQNNEDPRTFGGGTKVEIKR
notes: Humanized IgG4; also called anti-IL13 MAb; anti-IL13 monoclonal antibody
binding result: no binding (tested: 50 µg/mL)
